According to the DeepSol protein solubility set:

Experiment: soluble on expression in E. coli; label from the status in PepcDB or PDB records

Sequence | soluble on expression in E. coli
MLFSKETLKSFAQSKGISNIDDDALRVLSQDLEYRIKEVCQEGSKFMVGSKRTKLSIDDINYALTSRNVDPLFGYDPQESLVFRGLPSNVYYVPDEEIDLEEYLDRPLPKVPLRVSIQSHWLAIEGVQPQIPYNPILLEKPVAKKDTLGTYQEEAELKSQNKHMLTKELGMYFDKVIQAMESDEQTAMECLHNESGIQQLVPYFVHHFNEQIVKNIKNKEKLMTVVMVYSSLLKNKYIFVDPYLHQILPSLITCVIGKNVDDDVRKVAADVVKYVFSNFSSSYKTLAPRIINTLSKAWLDREKTESTQYGALFCLSILSKHVVETVIKPKADYYVREINNPRVVGLLKDILQSNGL | soluble
MTLSRFAYNGQRCPSSHNILDNSKIISEDCRKELTELFHHYYPIEIDPHRTIKEKLPHMVQWWSKAHSLLCQQRIQKVQIAQVVGESTAMLREGYKTFFDTLYQNNIPLFIFSAGIGDILEEIIRQMKVFHPNIHIVSNYMDFSEDGFLKGFKGQLIHTYNKNSSVCENSSYFQQLQNKTNIILLGDSIGDLTMADGVPGVQNILKIGFLNDKVEERRERYMDSYDIVLEKDETLDVVNGLLRHILYQGDCVELQGS | soluble
MIASLDELYHSELFFLPVMDENARLVGLEIIATFAAEDGAVRMPTELVAPRLSVEEQYCLFVEKLALLETCQHFFIQHKLIAWLNLPPAISDLLLLDSELFSRAARFPFLELAINENYPGLNQGKNNETLANLAMHFPLMLANFGAGEASTKAIFDGLFKRVMLDKNFIQQRAEMISFEPFMHAIVAQISSSCESLMIAGIDTEAMFARAAPLGFSAFQGGLWPPVPVSQLIKLVQR | not soluble
MGSDKIHHHHHHMTNKTNAASLDIVGIGNAIVDVLTTTDDSFLKKLSFDKGSMTLIDEKKAKELYEMTTNRIQKSGGSVANSLACVAQLGGKAAFIGRVRDDKLGEIFTEEISTTGTIFKTPPSSVGPSTARCIIFVTPDAQRTMCTYLGASVLLEPKDIDLSLVREAKILYLEGYLWDNPAAKNAFIKAAEIAKNAGRKVALSLSDSFCVSRHRESFIKLVEEHIDILFANEDEITNLYETSSLSNALEKLKKKCDLAAITIGEKGSILISNGKEIKIDPFILGKAIDTTGAGDLYAGAFLKGYADGLKPELSAKIGSICAGQIVTQLGSRSNTDLLNLINSHLEA | not soluble
LGLERDVSRAVELLERLQRSGELPPQKLQALQRVLQSRFCSAIREVYEQLYDTLDIT | soluble
MIPVVYSNLCPVCGGDLESKEIEKHVCFRKKRSLCLFPEDFLLKEFVEFFRKCVGEPRAIQKMWAKRILRKESFAATAPTGVGKTSFGLAMSLFLALKGKRCYVIFPTSLLVIQAAETIRKYAEKAGVGTENLIGYYHGRIPKREKENFMQNLRNFKIVITTTQFLSKHYRELGHFDFIFVDDVDAILKASKNVDKLLHLLGFHYDLKTKSWVGEARGCLMVSTATAKKGKKAELFRQLLNFDIGSSRITVRNVEDVAVNDESISTLSSILEKLGTGGIIYARTGEEAEEIYESLKNKFRIGIVTATKKGDYEKFVEGEIDHLIGTAHYYGTLVRGLDLPERIRFAVFVGCPSFRVTIEDIDSLSPQMVKLLAYLYRNVDEIERLLPAVERHIDEVREILKKVMGKERPQAKDVVVREGEVIFPDLRTYIQGSGRTSRLFAGGLTKGASFLLEDDSELLSAFIERAKLYDIEFKSIDEVDFEKLSRELDESRDRYRRRQEFDLIKPALFIVESPTKARQISRFFGKPSVKVLDGAVVYEIPMQKYVLMVTASIGHVVDLITNRGFHGVLVNGRFVPVYASIKRCRDCGYQFTEDRESCPKCGSENVDNSRSRIEALRKLAHDAEFVIVGTDPDTEGEKIAWDLKNLLSGCGAVKRAEFHEVTRRAILEALESLRDVDENLVKAQVVRRIEDRWIGFVLSQKLWERFNNRNLSAGRAQTLVLGWIIDRFQESRERRKIAIVRDFDLVLEHDEEEFDLTIKLVEEREELRTPLPPYTTETMLSDANRILKFSVKQTMQIAQELFENGLITYHRTDSTRVSDVGQRIAKEYLGDDFVGREWGESGAHECIRPTRPLTRDDVQRLIQEGVLVVEGLRWEHFALYDLIFRRFMASQCRPFKVVVKKYSIEFDGKTAEEERIVRAEGRAYELYRAVWVKNELPTGTFRVKAEVKSVPKVLPFTQSEIIQMMKERGIGRPSTYATIVDRLFMRNYVVEKYGRMIPTKLGIDVFRFLVRRYAKFVSEDRTRDLESRMDAIERGELDYLKALEDMYAEIKSID | soluble
MASHKLLVTPPKALLKPLSIPNQLLLGPGPSNLPPRIMAAGGLQMIGSMSKDMYQIMDEIKEGIQYVFQTRNPLTLVISGSGHCALEAALVNVLEPGDSFLVGANGIWGQRAVDIGERIGARVHPMTKDPGGHYTLQEVEEGLAQHKPVLLFLTHGESSTGVLQPLDGFGELCHRYKCLLLVDSVASLGGTPLYMDRQGIDILYSGSQKALNAPPGTSLISFSDKAKKKMYSRKTKPFSFYLDIKWLANFWGCDDQPRMYHHTIPVISLYSLRESLALIAEQGLENSWRQHREAAAYLHGRLQALGLQLFVKDPALRLPTVTTVAVPAGYDWRDIVSYVIDHFDIEIMGGLGPSTGKVLRIGLLGCNATRENVDRVTEALRAALQHCPKKKL | soluble
MAHHHHHHMIEETSFSNLKWEHDLFSIGDLHGDMDAFLKILLNEKMIDKNYNVIRENVLIVITGDVLDPSYDDINILFFIEEYNEKGKALNSKILMVLGNHEVKNMCLEFNKVKKNVEKYQNRNDMFPKNEVIYNILVNKPFVLRVNEMVFSHAGVLPFYASYGIDYINKEGKNEIENNCKLLFNKRKRKEEFCIACDYGPTLNRYFSFVNDGVFKKWMVCSTLNKSLNLLSSRRMIVGHTVQKNKKINSFCDDKLLLTDTGISKWKNGVVSYVQYFKDGTFDVRYL | not soluble
MEIIRSNFKINLHKVYQAIEEADFFAIDGEFSGISNGPSVTALTSGFDTPEERYQKLKKHSMDFLLFQFGLCAFKYDHTDSKHVTKSFNFYVFPKPFSRSSPDVKFVCQSSSIDFLASQGFDFNKVFCSGIPYLNQEEERQLREQFDEKRSQANGAGALAKCPVTIPEDQKKFIDQVIEKIEDFLQSEEKRSLELDPCTGFQRKLIYQTLSWKYPKGIHVETLETDKKERHIVISKVDEEERKRREQEKYTKEQEELNDAVGFSRVIHAIANSGKLVVGHNMLLDVMHTIHQFYCPLPADLNEFKEMAICVFPRLLDTKLMASTQPFKDIINNTSLAELEKRLKETPFDPPKVESAEGFPSYDTASEQLHEAGYDAYITGLCFISMANYLGSLLSPPKMCVSARSKLIEPFFNKLFLMRVMDIPYLNLEGPDLQPKRDHVLHVTFPKEWKTSDLYQLFSAFGNIQISWIDDTSAFVSLSQPEQVQIAVNTSKYAESYRIQTYAEYVGKKQKGKQVKRKWTEDSWKEVDRKRPHMQGPCYHSNSFTAAGMLGKRTLSPDPREAALEDRESEEVSDSELEQTDSCTDPLPEGRKKSKKLKRMKKELSLAGSVSDSPAVLFEVPDTW | soluble
PNFSHWGPPRIVEIFREPNVSLGISIVGGQTVIKRLKNGEELKGIFIKQVLEDSPAGKTNALKTGDKILEVSGVDLQNASHSEAVEAIKNAGNPVVFIVQSLSSTPRVIP | soluble
MSLTVVLIVDDHHLIRAGAKNLLEGAFSGMRVEGAETVSDALAFLEADNTVDLILLDVNLPDAEAIDGLVRLKRFDPSNAVALISGETDHELIRAALEAGADGFIPKSADPQVLIHAVSLILEGEIFLPRSYLQGGRMAEVATPLDSSERPEQNLTPRQRDVFELMCKGLANKEIARLLDLSESTVKSHVSAIFKQIGTTSRSKTIAIFRQEGVALPSASEDEGHHHHHH | soluble
MGSDKIHHHHHHMTAPLKSLFLLDPSVTYLNHGAYGATPRPVFERHVQWQYELEREPVDFLSRRFAERMAQARAILAEYVDTERDNLVYVSNGTTGVNIVARSLPLGPGDELLTTDHEHGGIERLWRFTAQKRGFEIVRHKVSLPVTTHARFVEDFWRDVTPRTRAILISQLTSPTALVFPVAAICARARARGILTIVDGSHVPGQLPLSLREMDPDFYVGILHKWVCAPKGSAFLYARPDVQPLVEPLVVSWGWEPKNPGPSKFVEYHEWQGSRDISAFLSVPSAIAFQREHDWDGVRKRCIALASDAQREVAALTREPLYHPPGAHEWHGQMVCAQLPPQTDDIALLARLRNECGIDVSVDRFGGRPRIRVSIQGYNGPDDVDRLLGSLKQLLRL | not soluble
MGDRGYGGSRSYGGSSGGGSRGGYGGGGRGGGGGGYSGGRGGGYGGGGGGGYGGGGYGGGGRGGGRGGSNGSAGGRLRDVDWSAENLTPIEKDFYHENAAVSRREQYEIDQWVSANQVTLEGRGVPRPVFEFNEAPLPGQIHELLYGKFQKPTVIQSISWPIAMSGRDIISIAKTGSGKTLAFMLPALVHITKQAHRQRGEGPAVLVLLPTRELAQQVQEVSIDFCHSLGLKMTCLFGGASKGPQARDLERGVDIVVATPGRLLDFLDNGTTNMKKCSYLVLDEADRMLDMGFEPQIKKIIGQIRPDRQTLMFSATWPKEVRALASDFQKDAAFLNVGSLELAANHNITQVVDILEEHAKQAKLMELLNHIMNQKECKTIIFVETKRKADELTRAMRRDGWPTLCIHGDKNQGERDWVLQEFKAGKTPIMLATDVAARGLDVDDIKFVINYDYPNNSEDYVHRIGRTGRSDKKGTAYTFFTHTNASKAKDLLKVLDEAKQTVPQALRDMANRSYGGSNSRGRYGGGGFQKRGYGGNDNFAPKRPRYDNGGYGGGSGGGGRW | not soluble
EVKDYMSQPVVLRENTTVYDAICTIFLEDVSTLFIINEDNDFVGVCSRKDLLRASMIGADIHTVPISVNMTRMPNVTYLEESELVIYAADRMIEKEIDSIPIVRKKDNQKYEVIGRISKTTIAKLLVALYKE | not soluble
MGNINSLFTTNPSEILPVEVYLNDLSCDAVENLGSTRFMKVARGRTHEGVFVYKVFVRQDLASLDPFPQRIIDIRKALMKSPNCCPIKKVLVKQKYAVMVRAFQKHTLFDRLSTRPFVVEAEKMWYIFLLFKALSQCETAGVCHGDLKSQNVLISSTNWLQITDFAPFKPCFLTHDNPSSFTFFFDTSRRQSCYIAPERFISATEYDEKLRDGQDEWLFGSLTPKMDMFSAGCIVFELLCDRPPFTYSSLCEYRSMNDADAGNMLLRLIQDVPAPYRPLLRLLLNRDPSFRISANAVLTGAALKFPHILESFLFKYLDRFRPLYGTSTSSDPSTDDFSQALEFSYLEPDDVITKLKREKQLWWARLSENDESKSFAFLFVSLITANLRALRTIQGKTDAIRMLVELSTISDSSVAIDRILPYFVHLWMDPETQVRATAVTAVAELLAPIQPKTYEESLVFVDYLFPHLNSMSNDSIDSPQHVLFAIATSLGQFADTAYRFYMAGREIRQATMYDDEVSTAGEQQQNDDAGALLHGVSAMFSALCSKEPMVKRCLVESKSLILLYHFFIKIGNDDTLLRFLCTFLNAKTEWRLRAAFFDSLPVCVQKRSEGMVPLLQLGLQDGEEHVVVRALGCIHILIKNENLDKMSVKKLLDDVLPFLVHPNDWIRSTVCDILLAIDCQWHNAEVHVKLIPLVSPFVEESKRGVLTLKSKPVLMSQLVDPIPRTTFNQIIDQSLENTKQITMLLEIHFQTGKPFEAGAGWFNTIFPKIKTETKAGVVEHNDLKAALEARKRLTASVYSFRKLFERMAETRNTAGMEIYLTRQLGTIDLSSIAHSRVRRKEFTYGGDESAMSSNSKHLTAINIPNHSTERRDTLLLAGEVVIEEERTVTNTPAPYSPVKNTTFDNQVNEMLAHLNELHMRNVNCRPKRPLAASASHPVLSASPSAGSLGSSSNNNVKGIIITHLHEHSGKITKLCANRESDLFLSGSTDGTVKVWKTRSVLGEGYGSARSEDTWIPTETSREKVNSVGWNDQFACSATNDGFVRWADVGQGSARVATQVRIPDAEGPPVYLHCNGPMAIVRTHHGVLYGIDLRVGASEGPLKRHDIWRKKFQESHGLVTSSAIDPWQQSWMVIGNNSGQKNLVLYDLRFKEEVLRWESPHQNTQPNRVWANPVSRQECPEVFVGFSMHGEISTYELSAQPLRKRVFWTGGAPILSYSAASNDARKQDSLATRSLCVCEKTGVVYTGDTRGAIRKWNPTRAVGCEIISAPPKGRTAYRTIFEENDTSTAPSGASTDPFVIYERTVLDTEAKENQKVVPLDSKPSTYHRTPITDMMLLNSELLVSSGYDGVIKIWK | not soluble
